The supplement of paper PMC6757056
± gives the standard deviation of the averaged measurements.

B1: library; a variant is named by its letters at N, in order (parent)
chain: GCUGUCACCGGUGUAUUACCCUAGUGGUCGACCGGUCUGAUGAGUCUNNNNNNAGACGAAACAGC

Columns and labels:
hypoxanthine [1] = variants of: B1; assay: FACS-Seq fitted mean relative fluorescence mCherry/BFP without ligand (log10 relative fluorescence); ligand: hypoxanthine (xanthine aptamer); higher = higher reporter protein expression; settings: HEK293T, ligand present: no
Procedure, shortened: (§1)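 The ribozyme switch sat in an mCherry reporter, delivered by lentivirus into HEK293T libraries along with an EF1α-BFP marker. Enriched cells were incubated 48 h with or without ligand, sorted into 6 bins by mCherry/BFP, and bin genomic DNA was PCR-amplified, barcoded and MiSeq-sequenced. Fluorescence equals the fitted normal mean of the bin counts after normalization. Those log10(mCherry/BFP) means were scaled to five spiked-in control ribozymes.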

hypoxanthine [2] = variants of: B1; assay: normalized RNA/DNA level with ligand (relative to sTRSVctl = 100) (log10 (% of sTRSVctl)); ligand: hypoxanthine (xanthine aptamer); higher = less ribozyme self-cleavage, higher mRNA level; settings: ligand concentration (+) RNA-Seq: 5 mM, HEK293T, reporter: mCherry (pCS4076), ligand present: yes
Procedure, shortened: (§2)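 Only sequences with at least 100 DNA reads were analyzed, from HEK293T cells transfected with 4 µg per 6-well well of ribozyme switch library plasmids 72 h before RNA extraction with EDTA. Any ligand was added 1 h before transfection. RNA level was defined as RNA over DNA reads, normalized to a spiked-in non-cleaving sequence or to the top sequences, then scaled and log-transformed. The top set was 25 sequences, and the scaling was ×100 followed by log10.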

hypoxanthine [3] = variants of: B1; assay: normalized RNA/DNA level without ligand (relative to sTRSVctl = 100) (log10 (% of sTRSVctl)); ligand: hypoxanthine (xanthine aptamer); higher = less ribozyme self-cleavage, higher mRNA level; settings: HEK293T, reporter: mCherry (pCS4076), ligand present: no
Procedure, shortened: as §2

hypoxanthine [4] = variants of: B1; assay: FACS-Seq fitted mean relative fluorescence mCherry/BFP with ligand (log10 relative fluorescence); ligand: hypoxanthine (xanthine aptamer); ligand concentration (+) FACS-Seq: 5 mM; higher = higher reporter protein expression; settings: HEK293T, ligand present: yes
Procedure, shortened: as §1

| Variant | FACS-Seq fitted mean (log10) (hypoxanthine [1]) | normalized RNA/DNA level with ligand (log10) (hypoxanthine [2]) | normalized RNA/DNA level without ligand (log10) (hypoxanthine [3]) | FACS-Seq fitted mean (log10) (hypoxanthine [4]) |
| --- | --- | --- | --- | --- |
| GCUGUCACCGGUGUAUUACCCUAGUGGUCGACCGGUCUGAUGAGUCUCGGGUUAGACGAAACAGC | -0.0176 ± 0.018 | 1.99 ± 0.027 | 1.89 ± 0.044 | -0.176 ± 0.051 |
| GCUGUCACCGGUGUAUUACCCUAGUGGUCGACCGGUCUGAUGAGUCUAGGGUCAGACGAAACAGC | 0.588 ± 0.012 | 2.003 ± 0.0048 | 1.94 ± 0.06 | 0.51 ± 0.11 |
| GCUGUCACCGGUGUAUUACCCUAGUGGUCGACCGGUCUGAUGAGUCUAGGGUUAGACGAAACAGC | 0.328 ± 0.006 | 1.97 ± 0.027 | 1.9 ± 0.029 | 0.0205 ± 0.029 |
| GCUGUCACCGGUGUAUUACCCUAGUGGUCGACCGGUCUGAUGAGUCUAGGGUAAGACGAAACAGC | 0.412 ± 0.086 | 1.95 ± 0.041 | 1.82 ± 0.0091 | 0.427 ± 0.064 |
| GCUGUCACCGGUGUAUUACCCUAGUGGUCGACCGGUCUGAUGAGUCUCGGUAGAGACGAAACAGC | 0.498 ± 0.066 | 1.9 ± 0.036 | 1.61 ± 0.029 | 0.506 ± 0.0093 |
| GCUGUCACCGGUGUAUUACCCUAGUGGUCGACCGGUCUGAUGAGUCUCGGUAAAGACGAAACAGC | 0.258 ± 0.03 | 1.814 ± 0.002 | 1.27 ± 0.058 | 0.537 ± 0.027 |
| GCUGUCACCGGUGUAUUACCCUAGUGGUCGACCGGUCUGAUGAGUCUGGGUAAAGACGAAACAGC | 0.396 ± 0.048 | 1.884 ± 0.0098 | 1.71 ± 0.045 | 0.6223 ± 0.0027 |
| GCUGUCACCGGUGUAUUACCCUAGUGGUCGACCGGUCUGAUGAGUCUGGGUACAGACGAAACAGC | 0.1586 ± 0.00038 | 1.93 ± 0.06 | 1.68 ± 0.037 | 0.529 ± 0.049 |
| GCUGUCACCGGUGUAUUACCCUAGUGGUCGACCGGUCUGAUGAGUCUAGGUAAAGACGAAACAGC | 0.414 ± 0.059 | 1.87 ± 0.022 | 1.6 ± 0.06 | 0.443 ± 0.069 |
| GCUGUCACCGGUGUAUUACCCUAGUGGUCGACCGGUCUGAUGAGUCUAGGUACAGACGAAACAGC | 0.133 ± 0.061 | 1.893 ± 0.017 | 1.72 ± 0.02 | 0.0782 ± 0.049 |
| GCUGUCACCGGUGUAUUACCCUAGUGGUCGACCGGUCUGAUGAGUCUUGGGUAAGACGAAACAGC | 0.491 ± 0.13 | 1.95 ± 0.031 | 1.85 ± 0.061 | 0.699 ± 0.12 |
